Assays:
[1] = target: human CD16A (FcγRIIIA) on the cell surface (human) (UniProt P08637)
[2] = target: CD16B-Fc^NA1 (human); assay: SPR (BIAcore 2000), antigen immobilized
[3] = target: CD16B-Fc^NA2 (human); assay: SPR (BIAcore 2000), antigen immobilized
[4] = target: CD16B-Fc^SH (human); assay: SPR (BIAcore 2000), antigen immobilized
[5] = target: human CD16A-Fc^48R/158F fusion protein (human); assay: SPR (BIAcore 2000), antigen immobilized
[6] = target: human CD16A-Fc^48R/158V fusion protein (human); assay: SPR (BIAcore 2000), antigen immobilized
[7] = target: CD16B-Fc^NA1 (human); assay: SPR (BIAcore 2000), antigen immobilized, koff/kon
[8] = target: CD16B-Fc^NA2 (human); assay: SPR (BIAcore 2000), antigen immobilized, koff/kon
[9] = target: CD16B-Fc^SH (human); assay: SPR (BIAcore 2000), antigen immobilized, koff/kon
[10] = target: human CD16A-Fc^48R/158F fusion protein (human); assay: SPR (BIAcore 2000), antigen immobilized, koff/kon
[11] = target: human CD16A-Fc^48R/158V fusion protein (human); assay: SPR (BIAcore 2000), antigen immobilized, koff/kon
[12] = target: human CD16A-Fc^48R/158V fusion protein (human); assay: SPR (BIAcore 2000), CD16A-Fc immobilized, koff/kon
[13] = target: human CD16A-Fc^48R/158V fusion protein (human); assay: SPR (BIAcore 2000), CD16A-Fc immobilized, 1/1 Langmuir model

- redirected lysis of FcR-positive P815 cells by freshly isolated NK cells (calcein release) [1]: 65%
- koff [2]: 0.000487 s⁻¹
- kon [2]: 77200 M⁻¹ s⁻¹
- koff [3]: 0.000478 s⁻¹
- kon [3]: 75700 M⁻¹ s⁻¹
- koff [4]: 0.000528 s⁻¹
- kon [4]: 77900 M⁻¹ s⁻¹
- koff [5]: 0.00038 s⁻¹
- kon [5]: 99400 M⁻¹ s⁻¹
- koff [6]: 0.000406 s⁻¹
- kon [6]: 78600 M⁻¹ s⁻¹
- Kd [7]: 8.91 nM
- Kd [8]: 9.63 nM
- Kd [9]: 11.4 nM
- Kd [10]: 3.82 nM
- Kd [11]: 5.17 nM
- Kd [12]: 1.75 nM
- koff [13]: 0.000177 s⁻¹
- kon [13]: 101000 M⁻¹ s⁻¹
Substance: anti-CD16 murine monoclonal antibody A9

Source: US9701750B2
